Measurements taken from patent US8669352 (PANGENETICS B V, dated 2014).

These binders were tested against T1, human CD40 (human, UniProt P25942 21-277) (assay: FACS on JY cells expressing CD40; 100 µl PER.C6 transient supernatant harvested after 48 h (antibody concentration not equalised), FITC anti-human IgG 1/100; in the same figure Mock Control Mean 11.25 / Median 8.74, FACS control (secondary only) Mean 10.18 / Median 8.74 [Condt.]).
T1 construct: whole, on cells; also called huCD40; CD40 expressed on JY cells
T1 sequence (P25942 21-277): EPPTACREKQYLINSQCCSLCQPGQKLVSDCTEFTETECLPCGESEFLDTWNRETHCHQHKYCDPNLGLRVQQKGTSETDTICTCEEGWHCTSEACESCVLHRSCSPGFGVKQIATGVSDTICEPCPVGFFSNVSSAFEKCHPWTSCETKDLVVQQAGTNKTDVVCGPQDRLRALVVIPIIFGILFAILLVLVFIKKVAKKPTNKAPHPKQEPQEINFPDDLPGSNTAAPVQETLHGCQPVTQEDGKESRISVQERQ
Experimental: (§1) FIG. 8. FACS analysis using JY cells. PER.C6 cell supernatant of the transient expressed variants (Q5E, K13A, E16Q, T17S, I29L, 37V, P45L, M48L, STS60NSA, T68S, S79F, and T108S) of 5D12 was harvested after 48 h. As control also supernatant was harvested of cells transfected with either ch5D12 or D15D12 together with supernatant from mock (no plasmid) transfected cells. Binding of expressed antibodies was tested by FACS using JY cells together with anti-human FITC labelled secondary antibody (1/100 diluted). As FACS control JY cells were incubated with only the secondary FITC labelled antibody.
(§2) By FACS analysis the antigen specificity of the expressed antibodies was analyzed. JY cells are EBV transformed human B-cells, which express CD40. Briefly, 100,000 JY cells were incubated with 100 µl supernatant from the transient expression experiment at 4° C. for 20 minutes. To remove unbound antibody cells were washed with PBS containing 0.05% NaAzide and 1% BSA. As secondary antibody 1/100 diluted FITC labeled anti-human IgG (Jackson 109-095-127) was used. After 20 minutes incubation at 4° C. cells were washed. Finally cell samples were measured on a FACScan (BD).

Mean (FL1-H)	Median (FL1-H)	Binder
82.5 FL1-H	74.3 FL1-H	P45L variant of deimmunised 5D12 (antibody, human IgG4, V domains shown, VH on a human IgG4 backbone) VH: QVKLQESGPGLVKPSETLSITCTVSGFSISRYSVYWIRQPPGKGLEWMGMMWGGGSTDYSTSLKSRLTISKDTSKSQVSLKMNSLRTDDTAMYYCVRTDGDYWGQGTTVTVSS VL: ELQLTQSPLSLPVTLGQPASISCRSSQSLANSNGNTYLHWYLQRPGQSPRLLIYKVSNRFSGVPDRFSGSGSGTDFTLKISRVEAEDVGVYYCSQSTHVPWTFGGGTKLEIKR
99 FL1-H	85.8 FL1-H	T108S variant of deimmunised 5D12 (antibody, human IgG4, V domains shown, VH on a human IgG4 backbone) VH: QVKLQESGPGLVKPSETLSITCTVSGFSISRYSVYWIRQPPGKGPEWMGMMWGGGSTDYSTSLKSRLTISKDTSKSQVSLKMNSLRTDDTAMYYCVRTDGDYWGQGTSVTVSS VL: ELQLTQSPLSLPVTLGQPASISCRSSQSLANSNGNTYLHWYLQRPGQSPRLLIYKVSNRFSGVPDRFSGSGSGTDFTLKISRVEAEDVGVYYCSQSTHVPWTFGGGTKLEIKR
62.4 FL1-H	58.8 FL1-H	STS60NSA variant of deimmunised 5D12 (antibody, human IgG4, V domains shown, VH on a human IgG4 backbone) VH: QVKLQESGPGLVKPSETLSITCTVSGFSISRYSVYWIRQPPGKGPEWMGMMWGGGSTDYNSALKSRLTISKDTSKSQVSLKMNSLRTDDTAMYYCVRTDGDYWGQGTTVTVSS VL: ELQLTQSPLSLPVTLGQPASISCRSSQSLANSNGNTYLHWYLQRPGQSPRLLIYKVSNRFSGVPDRFSGSGSGTDFTLKISRVEAEDVGVYYCSQSTHVPWTFGGGTKLEIKR
35.2 FL1-H	34 FL1-H	T68S variant of deimmunised 5D12 (antibody, human IgG4, V domains shown, VH on a human IgG4 backbone) VH: QVKLQESGPGLVKPSETLSITCTVSGFSISRYSVYWIRQPPGKGPEWMGMMWGGGSTDYSTSLKSRLSISKDTSKSQVSLKMNSLRTDDTAMYYCVRTDGDYWGQGTTVTVSS VL: ELQLTQSPLSLPVTLGQPASISCRSSQSLANSNGNTYLHWYLQRPGQSPRLLIYKVSNRFSGVPDRFSGSGSGTDFTLKISRVEAEDVGVYYCSQSTHVPWTFGGGTKLEIKR
80.3 FL1-H	72.3 FL1-H	M48L variant of deimmunised 5D12 (antibody, human IgG4, V domains shown, VH on a human IgG4 backbone) VH: QVKLQESGPGLVKPSETLSITCTVSGFSISRYSVYWIRQPPGKGPEWLGMMWGGGSTDYSTSLKSRLTISKDTSKSQVSLKMNSLRTDDTAMYYCVRTDGDYWGQGTTVTVSS VL: ELQLTQSPLSLPVTLGQPASISCRSSQSLANSNGNTYLHWYLQRPGQSPRLLIYKVSNRFSGVPDRFSGSGSGTDFTLKISRVEAEDVGVYYCSQSTHVPWTFGGGTKLEIKR
96.4 FL1-H	82 FL1-H	S79F variant of deimmunised 5D12 (antibody, human IgG4, V domains shown, VH on a human IgG4 backbone) VH: QVKLQESGPGLVKPSETLSITCTVSGFSISRYSVYWIRQPPGKGPEWMGMMWGGGSTDYSTSLKSRLTISKDTSKSQVFLKMNSLRTDDTAMYYCVRTDGDYWGQGTTVTVSS VL: ELQLTQSPLSLPVTLGQPASISCRSSQSLANSNGNTYLHWYLQRPGQSPRLLIYKVSNRFSGVPDRFSGSGSGTDFTLKISRVEAEDVGVYYCSQSTHVPWTFGGGTKLEIKR

These binders were tested against T1, human CD40 (assay: FACS on JY cells expressing CD40; 100 µl PER.C6 transient supernatant harvested after 48 h (antibody concentration not equalised), FITC anti-human IgG 1/100; in the same figure Mock Control Mean 11.25 / Median 8.74, FACS control (secondary only) Mean 10.18 / Median 8.74).
Experimental: as §1, §2

Mean (FL1-H)	Median (FL1-H)	Binder
39.5 FL1-H	38.2 FL1-H	E16Q variant of deimmunised 5D12 (antibody, human IgG4, V domains shown, VH on a human IgG4 backbone) VH: QVKLQESGPGLVKPSQTLSITCTVSGFSISRYSVYWIRQPPGKGPEWMGMMWGGGSTDYSTSLKSRLTISKDTSKSQVSLKMNSLRTDDTAMYYCVRTDGDYWGQGTTVTVSS VL: ELQLTQSPLSLPVTLGQPASISCRSSQSLANSNGNTYLHWYLQRPGQSPRLLIYKVSNRFSGVPDRFSGSGSGTDFTLKISRVEAEDVGVYYCSQSTHVPWTFGGGTKLEIKR
96 FL1-H	82 FL1-H	I37V variant of deimmunised 5D12 (antibody, human IgG4, V domains shown, VH on a human IgG4 backbone; also called 137V; 29I-37V) VH: QVKLQESGPGLVKPSETLSITCTVSGFSISRYSVYWVRQPPGKGPEWMGMMWGGGSTDYSTSLKSRLTISKDTSKSQVSLKMNSLRTDDTAMYYCVRTDGDYWGQGTTVTVSS VL: ELQLTQSPLSLPVTLGQPASISCRSSQSLANSNGNTYLHWYLQRPGQSPRLLIYKVSNRFSGVPDRFSGSGSGTDFTLKISRVEAEDVGVYYCSQSTHVPWTFGGGTKLEIKR
33.4 FL1-H	31.9 FL1-H	T17S variant of deimmunised 5D12 (antibody, human IgG4, V domains shown, VH on a human IgG4 backbone) VH: QVKLQESGPGLVKPSESLSITCTVSGFSISRYSVYWIRQPPGKGPEWMGMMWGGGSTDYSTSLKSRLTISKDTSKSQVSLKMNSLRTDDTAMYYCVRTDGDYWGQGTTVTVSS VL: ELQLTQSPLSLPVTLGQPASISCRSSQSLANSNGNTYLHWYLQRPGQSPRLLIYKVSNRFSGVPDRFSGSGSGTDFTLKISRVEAEDVGVYYCSQSTHVPWTFGGGTKLEIKR
39 FL1-H	37.5 FL1-H	Q5E variant of deimmunised 5D12 (antibody, human IgG4, V domains shown, VH on a human IgG4 backbone) VH: QVKLEESGPGLVKPSETLSITCTVSGFSISRYSVYWIRQPPGKGPEWMGMMWGGGSTDYSTSLKSRLTISKDTSKSQVSLKMNSLRTDDTAMYYCVRTDGDYWGQGTTVTVSS VL: ELQLTQSPLSLPVTLGQPASISCRSSQSLANSNGNTYLHWYLQRPGQSPRLLIYKVSNRFSGVPDRFSGSGSGTDFTLKISRVEAEDVGVYYCSQSTHVPWTFGGGTKLEIKR
31.2 FL1-H	30 FL1-H	K13A variant of deimmunised 5D12 (antibody, human IgG4, V domains shown, VH on a human IgG4 backbone) VH: QVKLQESGPGLVAPSETLSITCTVSGFSISRYSVYWIRQPPGKGPEWMGMMWGGGSTDYSTSLKSRLTISKDTSKSQVSLKMNSLRTDDTAMYYCVRTDGDYWGQGTTVTVSS VL: ELQLTQSPLSLPVTLGQPASISCRSSQSLANSNGNTYLHWYLQRPGQSPRLLIYKVSNRFSGVPDRFSGSGSGTDFTLKISRVEAEDVGVYYCSQSTHVPWTFGGGTKLEIKR
